Laboratory results: paper PMC4355278 (Journal of molecular biology, 2015)

Key:
SEC = target: the molecule itself; test: SEC
Pex1/Pex6 complex = Pex1/Pex6 complex (Saccharomyces cerevisiae, UniProt P24004); test: ATPase assay

Kd (Pex1/Pex6 complex) [nM] | Binder | binding result (SEC)
– | Pex1-FLAG (recombinant) (natural protein, S. cerevisiae, UniProt P24004 1-1043, looked up) MTTTKRLKFENLRIQFSNAIVGNFLRLPHSIINVLESTNYAIQEFGIAVHSHNSDIPIVHLGWDGHDSGSSENVVLINPVLATVYDLNQKSPLVDLYIQRYDHTHLATEVYVTPETSDDWEIIDANAMRFQNGEILHQTRIVTPGETLICYLEGIVTKFKIDRVEPSMKSARITDGSLVVVAPKVNKTRLVKAEYGHSNKTILKNGAIQLLKKVILRSTVCKMDFPKDNLFVVYISDGAQLPSQKGYASIVKCSLRQSKKSDSDNKSVGIPSKKIGVFIKCDSQIPENHIALSSHLWDAFFTHPMNGAKIKLEFLQMNQANIISGRNATVNIKYFGKDVPTKSGDQYSKLLGGSLLTNNLILPTEQIIIEIKKGESEQQLCNLNEISNESVQWKVTQMGKEEVKDIIERHLPKHYHVKETGEVSRTSKDEDDFITVNSIKKEMVNYLTSPIIATPAIILDGKQGIGKTRLLKELINEVEKDHHIFVKYADCETLHETSNLDKTQKLIMEWCSFCYWYGPSLIVLDNVEALFGKPQANDGDPSNNGQWDNASKLLNFFINQVTKIFNKDNKRIRVLFSGKQKTQINPLLFDKHFVSETWSLRAPDKHARAKLLEYFFSKNQIMKLNRDLQFSDLSLETEGFSPLDLEIFTEKIFYDLQLERDCDNVVTRELFSKSLSAFTPSALRGVKLTKETNIKWGDIGALANAKDVLLETLEWPTKYEPIFVNCPLRLRSGILLYGYPGCGKTLLASAVAQQCGLNFISVKGPEILNKFIGASEQNIRELFERAQSVKPCILFFDEFDSIAPKRGHDSTGVTDRVVNQLLTQMDGAEGLDGVYILAATSRPDLIDSALLRPGRLDKSVICNIPTESERLDILQAIVNSKDKDTGQKKFALEKNADLKLIAEKTAGFSGADLQGLCYNAYLKSVHRWLSAADQSEVVPGNDNIEYFSINEHGRREENRLRLKTLLQQDVVHETKTSTSAASELTAVVTINDLLEACQETKPSISTSELVKLRGIYDRFQKDRNGEMPNGENSIDIGSRLSLM | binds
185 | Pex15 cytosolic domain (protein) MAASEIMNNLPMHSLDSSLRDLLNDDLFIESDESTKSVNDQRSEVFQECVNLFIKRDIKDCLEKMSEVGFIDITVFKSNPMILDLFVSACDIMPSFTKLGLTLQSEILNIFTLDTPQCIETRKIILGDLSKLLVINKFFRCCIKVIQFNLTDHTEQEEKTLELESIMSDFIFVYITKMRTTIDVVGLQELIEIFIFQVKVKLHHKKPSPNMYWALCKTLPKLSPTLKGLYLSKDVSIEDAILNSIDNKIQKDKAKSKGKQRGVKQKIHHFHEPMLHNSSEEQVKVEDAFNQRTSTDSRLQSTGTAPRKKNNDITVLAGSFWAVLKHHFTRS | –
